This experiment concerns the target Myc-tagged Bfl-1 (human, UniProt Q16548 1-175). The experiment in a line: fluorescence polarisation; competition: 0–10 μM unlabeled peptide titrated into 50 nM c-myc-tagged receptor plus 25 nM fluoresceinated BIM; 25 mM Tris pH 7.8, 50 mM NaCl, 1 mM EDTA, 5% DMSO, 0.001% v/v Triton-X; 23°C, 3 hr; fit to a complete competitive binding model. The note with it: both partners purified. For orientation: Fluorescence polarisation rises when a labelled molecule tumbles more slowly, as on binding a larger partner.

In general, Ki refers to the dissociation constant of the complex between target and ligand, obtained from inhibition or displacement.

Myc-tagged Bfl-1, sequence (Q16548 whole entry): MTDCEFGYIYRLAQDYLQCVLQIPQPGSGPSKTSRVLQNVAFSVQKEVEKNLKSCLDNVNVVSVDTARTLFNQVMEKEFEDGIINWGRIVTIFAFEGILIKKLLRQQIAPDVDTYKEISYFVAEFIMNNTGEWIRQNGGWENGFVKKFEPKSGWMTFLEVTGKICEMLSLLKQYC

B1: BIM-FS2 (peptide)
chain: RPVIWIAQGLRRAGDEVNAYVAR
modifications: probably N-terminal acetyl and C-terminal amide; 23-mer 1f-4g assumed by analogy with PUMA/FS2; printed E2bV read as E2aV (2b is Ile in BIM, 2a is Glu and FS2 has Val at 2a); A2eA is no change / Myc …
Take B1: the Ki is 720 nM.

The values above are taken from article PMC5464773, “Epistatic mutations in PUMA BH3 drive an alternate binding mode to potently and selectively inhibit anti-apoptotic Bfl-1” (eLife, 2017).
